# Laboratory results from patent US20190151401A1 (UNIVERSITY OF BRITISH COLUMBIA, published 2019).
# T1: cyclo(CGQKLVG) conjugated to BSA (also: conjugated to BSA)
# T1 construct: BSA carrier is not written as a chain
# T1 peptide: cyclo(CGQKLVG)
# T2: cyclo(CGHDSGG) conjugated to BSA (also: conjugated to BSA)
# T2 construct: BSA carrier is not written as a chain
# T2 peptide: cyclo(CGHDSGG)
# T3: cyclo(CGHHQKG) conjugated to BSA (also: conjugated to BSA)
# T3 construct: HHQK are A-beta residues 13-16; C and G residues are linker; BSA carrier is not written as a chain; also called Cyclo-BSA
# T3 peptide: cyclo(CGHHQKG)
# Tests used:
# [1] = target: T1, cyclo(CGQKLVG) conjugated to BSA; assay: ELISA and SPR on peptide-BSA conjugates
# [2] = target: T4, A-beta42 oligomers (synthetic, commercially prepared, SynAging SAS) (human); assay: cell-based or functional assay
# [3] = target: T2, cyclo(CGHDSGG) conjugated to BSA; assay: ELISA and SPR on peptide-BSA conjugates
# [4] = target: T3, cyclo(CGHHQKG) conjugated to BSA; assay: ELISA and SPR on peptide-BSA conjugates
# [5] = target: T4, A-beta42 oligomers (synthetic, …); assay: ProteOn biosensor, antibody captured or amine-coupled on GLM chip, AbO 12.3 nM to 1 uM; approximate kinetic value
# [6] = target: T3, cyclo(CGHHQKG) conjugated to BSA; assay: ProteOn biosensor, antibody amine-coupled on GLH chip, cyclo-BSA 111 pM to 9 nM
# Protocol: Cyclo-BSA 3-fold dilutions were used from 9 nM to 111 pM. Assay buffer was PBS-E+0.05% Tween+10 mg/ml BSA.
# T4 sequence (peptide, as listed by the source): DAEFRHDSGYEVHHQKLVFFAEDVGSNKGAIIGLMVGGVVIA
binder,measurement,setting,value
"antibody 305-61 (IgG3, kappa), raised against cyclo(CGQKLVG) (antibody, V domains shown, Mouse IgG3/kappa; Entries as printed include the leader peptide and a few constant-region residues; also called 7E9.1) VH: QVQLQQSGAELVRPGASVTLSCKASGYTFTDYEMHWVKQTPVHGLEWIGAIDPETGDTAYNQEFKGKATLTADKSSSTAYMELRSLTSEDSAVYYCTSPIYYDYDWFAYWGHGTLVTVSA VL: DIVMSQSPSSLAVSAGEKVTMSCKSSQSLLNNRTRKNYLAWYQQKPGQSPKLLIYWASTRESGVPDRFTGSGSGTDFTLTISSVQAEDLAVYYCKQSYNLRTFGGGTKLEIKR",binding result,[1],binds
same,remaining cell viability at a molar ratio of 1:2 (AβO:AB1),[2],80.1 % of control
"antibody 303-25, raised against cyclo(CGHDSGG) (antibody, V domains shown, Mouse, kappa; Entries as printed include the leader peptide) VH: QVQLQQPGAELVRPGASVKLSCKASGYTFTSYWMNWVKQRPGQGLEWIGMIDPSDSQTHYNQMFKDKATLTVDKSSSTAYLQLSSLTSEDSAVYYCSRGGYWGQGTTLTVSS VL: DIQMTQSPSSLSASLGGKVTITCKASQDINNYIAWYQHKPGKGPRQLIYYTSTLQPGIPSRFSGSGSGRDYSFTISDLEPEDIATYYCLQYDNLWTFGGGTKLEIK",binding result,[3],binds
same,remaining cell viability at a molar ratio of 1:2 (AβO:AB1),[2],88.8 % of control
"antibody 301-11 (IgG3, kappa), raised against cyclo(CGHHQKG) (antibody, V domains shown, Mouse IgG3/kappa; Entries as printed include the leader peptide) VH: EVQLVESGGGLVKPGGSLKLSCAASGFTFSDYYMYWVRQTPEKRLEWVATISDGGSYTSYPDSVKGRFTISRDNAKNNLYLQMSSLRSEDTAMYYCARDYYGSSSYTSGFAYWGQGTLVTVSA VL: DIVMSQSPSSLAVSTGEKVTMSCKSSQSLLNSRTRKNYLAWYQQKPGQSPKLLIYWASTRESGVPDRFTGSGSGTDFTLTISSVQAEDLAVYYCKQSYNLYTFGGGTKLEIK",binding result,[4],binds
"antibody 305-59 (IgG1, kappa), raised against cyclo(CGQKLVG) (antibody, V domains shown, Mouse IgG1/kappa; Entries as printed include the leader peptide; also called 59 (5G1)) VH: EVQLQQSGAELVKPGASVKLSCTVSGFNIKDTYVHWVKQRPEQGLEWIGRIAPASGNTKYAPNFQDKATITADTSSNTAYLQLNSLTSEDTAVYYCARHVYWGQGTLVTVSA VL: SIVMTQTPKFLLVSAGDRVTITCKASQSVSNDVVWYQQKPGQSPKLLIYYASNRYTGVPDRFTGSGYGTDFTFTISTVQAEDLAVYFCQQDYISPYTFGGGTKLEIK",binding result,[1],binds
"antibody 305-62 (IgG1, kappa), raised against cyclo(CGQKLVG) (antibody, V domains shown, Mouse IgG1/kappa; Entries as printed include the leader peptide and a few constant-region residues) VH: QVTLKESGPGILKPSQTLSLTCSFSGFSLSTSGMGVGWIRQPSGKGLEWLAHIWWDDDKYYNPSLKSQLTISKDTSRNQVFLKITSVDTADTATYYCARSITTVVATPFDYWGQGTTLTVSS VL: DIVMTQSQKFMSTSVGDRVSITCKASQNVRSAVAWYQQKPGQSPKALIYLASNRHTGVPDRFTGSGSGTDFTLTISNVHSEDLTDYFCLQHWNSPFTFGGGTKLEIKR",binding result,[1],binds
"antibody 301-17 (hybridoma-purified, IgG3, kappa), raised against cyclo(CGHHQKG) (antibody, V domains shown, Mouse IgG3/kappa) VH: QVQLQQPGAELVKPGASVKMSCKASGYSFTSYWINWVKQRPGQGLEWIGDVHPGRGVSTYNAKFKSKATLTLDTSSSTAYMQLSSLTSEDSAVYYCSRSHGNTYWFFDVWGAGTTVTVSS VL: DVLMTQTPLSLPVSLGDQASISCRSSQSIVHSNGNTYLEWYLQKPGQSPKLLIYKVSNRFSGVPDRFSGSGSGTDFTLKISRVEAEDLGVYYCFQGSHVPFTFGSGTKLEIKR",Kd,[5],~26.9 nM
"recombinant 301-17 IgG2a (antibody, V domains shown) VH: QVQLQQPGAELVKPGASVKMSCKASGYSFTSYWINWVKQRPGQGLEWIGDVHPGRGVSTYNAKFKSKATLTLDTSSSTAYMQLSSLTSEDSAVYYCSRSHGNTYWFFDVWGAGTTVTVSS VL: DVLMTQTPLSLPVSLGDQASISCRSSQSIVHSNGNTYLEWYLQKPGQSPKLLIYKVSNRFSGVPDRFSGSGSGTDFTLKISRVEAEDLGVYYCFQGSHVPFTFGSGTKLEIKR",Kd,[5],16.2 to 19.5 nM
same,Kd,[6],~0.017 nM
